Measured values as given in the supplement of paper PMC10065799, “High-throughput profiling of sequence recognition by tyrosine kinases and SH2 domains using bacterial peptide display” (eLife, 2023).

biological target: FGFR3 (UniProt P22607); assay: phosphorylation enrichment, bacterial display (enrichment ratio); higher = better substrate or ligand; peptides without Tyr show the background
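Also: 11-residue human phosphosite peptides and single-mutation variants displayed on the E. coli surface, counted by deep sequencing, each peptide's frequency after selection divided by its frequency in the unselected input library; frequency after pTyr selection over input frequency; kinase dosed for 20-30% of maximal phosphorylation in three min.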

FGFR3, sequence (P22607 whole entry, looked up): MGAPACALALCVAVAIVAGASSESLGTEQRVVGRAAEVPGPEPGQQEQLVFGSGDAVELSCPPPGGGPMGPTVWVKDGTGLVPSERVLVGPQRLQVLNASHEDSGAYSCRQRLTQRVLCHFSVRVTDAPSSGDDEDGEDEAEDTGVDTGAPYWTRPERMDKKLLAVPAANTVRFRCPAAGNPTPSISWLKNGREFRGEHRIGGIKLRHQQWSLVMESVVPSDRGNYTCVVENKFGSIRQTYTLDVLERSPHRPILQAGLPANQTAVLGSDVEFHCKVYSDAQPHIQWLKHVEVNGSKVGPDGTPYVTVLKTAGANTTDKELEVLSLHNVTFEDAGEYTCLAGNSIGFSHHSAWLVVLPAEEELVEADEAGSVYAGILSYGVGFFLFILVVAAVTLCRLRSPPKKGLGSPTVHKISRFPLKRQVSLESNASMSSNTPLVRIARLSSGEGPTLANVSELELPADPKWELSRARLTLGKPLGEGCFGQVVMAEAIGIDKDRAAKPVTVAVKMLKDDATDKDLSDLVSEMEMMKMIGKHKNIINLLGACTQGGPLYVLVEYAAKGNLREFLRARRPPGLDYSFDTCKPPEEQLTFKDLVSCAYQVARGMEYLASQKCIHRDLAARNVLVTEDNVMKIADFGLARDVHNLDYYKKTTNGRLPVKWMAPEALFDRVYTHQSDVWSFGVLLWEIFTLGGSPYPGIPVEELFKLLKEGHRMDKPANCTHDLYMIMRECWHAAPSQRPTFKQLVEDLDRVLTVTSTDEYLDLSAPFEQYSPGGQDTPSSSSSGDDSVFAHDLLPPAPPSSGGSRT

In order of falling phosphorylation enrichment:
1. GHEYIYVDPMQ [PDGFRA_Y574]  11.6
2. EEALYYLTRVE [SET_Y119_H118Y]  9.52
3. VIGRMYDYHVL [RPF2_Y109]  3.7
4. KILGTYYETGS [PAX2_Y72_R71T]  1.61
5. IGNGYYFHVFS [MYBPC3_Y1136_R1138H]  1.52
6. LQKNIYSEELR [LMNA_Y211_F206L]  1.37
7. ADEDIYGVLPA [LYNtide_2014]  0.982
8. SKNFTYIWWLN [PSG4_Y271_YF]  0.884
9. FMMMRYSQNIR [SDAD1_Y656_V660I]  0.795
10. GVTLLYFGRFN [ADGRD1_Y85_YF]  0.794
11. PVPKTYDMLNA [PKP2_Y108_K112N]  0.737
12. GGRIDYIAGLV [APRT_Y60_D65V]  0.717
13. TALFIYIRPKA [OR10C1_Y258]  0.712
14. GLALRCLSDHS [VWF_Y1584_Y1584C]  0.711
15. EQLLDYTRTVQ [INPP5E_Y439_R435Q]  0.709
16. PVLSLYASGRT [ACTA1_Y145_A140P]  0.703
17. PTQLPYDHKWE [KIT_Y578]  0.696
18. KNKELYSDLFD [PDE10A_Y300]  0.66
19. EASGIYVKSII [PATJ_Y396]  0.659
20. NSFKYYMSDDI [ATRX_Y204_C200S]  0.659
21. DGTIVYTGLET [USH2A_Y4487]  0.636
22. GRVFVYHLSEQ [ITGAE_Y551_R552H_YF]  0.626
23. GLALRYLSDHS [VWF_Y1584]  0.583
24. KIPGRYYETGS [PAX2_Y72_L69P]  0.539
25. LTMAPYSSVSL [FAM81A_Y24]  0.488
26. RNLDTYQKRLR [PLA2G2D_Y126]  0.484
27. KASVDYIRKLQ [MITF_Y360]  0.482
28. SKKSTYQALLD [GANC_Y43]  0.405
29. ELCSEYRKSRK [SPINK5_Y440]  0.394
30. RQLEIYRASRP [ERCC4_Y594]  0.389
31. KTTSGYAGGLS [KRT8_Y419]  0.376
32. RPGSGYTKIMR [PKLR_Y564_N566K]  0.368
33. KKARAYGPGIE [FLNA_Y287]  0.343

test system: Fer (mouse); assay: as above

In order of falling phosphorylation enrichment:
1. VIGRMYDYHVL [RPF2_Y109]  9.05
2. LTMAPYSSVSL [FAM81A_Y24]  6.06
3. EEALYYLTRVE [SET_Y119_H118Y]  5.28
4. ADEDIYGVLPA [LYNtide_2014]  2.99
5. GHEYIYVDPMQ [PDGFRA_Y574]  2.92
6. KNKELYSDLFD [PDE10A_Y300]  1.84
7. GLALRYLSDHS [VWF_Y1584]  0.723
8. GGRIDYIAGLV [APRT_Y60_D65V]  0.715
9. LQKNIYSEELR [LMNA_Y211_F206L]  0.61
10. IGNGYYFHVFS [MYBPC3_Y1136_R1138H]  0.604
11. PTQLPYDHKWE [KIT_Y578]  0.601
12. KIPGRYYETGS [PAX2_Y72_L69P]  0.588
13. PVPKTYDMLNA [PKP2_Y108_K112N]  0.542
14. PVLSLYASGRT [ACTA1_Y145_A140P]  0.539
15. GLALRCLSDHS [VWF_Y1584_Y1584C]  0.518
16. FMMMRYSQNIR [SDAD1_Y656_V660I]  0.509
17. SKNFTYIWWLN [PSG4_Y271_YF]  0.508
18. TALFIYIRPKA [OR10C1_Y258]  0.508
19. NSFKYYMSDDI [ATRX_Y204_C200S]  0.501
20. GVTLLYFGRFN [ADGRD1_Y85_YF]  0.497
21. EQLLDYTRTVQ [INPP5E_Y439_R435Q]  0.494
22. EASGIYVKSII [PATJ_Y396]  0.492
23. DGTIVYTGLET [USH2A_Y4487]  0.468
24. KILGTYYETGS [PAX2_Y72_R71T]  0.466
25. ELCSEYRKSRK [SPINK5_Y440]  0.457
26. GRVFVYHLSEQ [ITGAE_Y551_R552H_YF]  0.444
27. RQLEIYRASRP [ERCC4_Y594]  0.427
28. KTTSGYAGGLS [KRT8_Y419]  0.422
29. RPGSGYTKIMR [PKLR_Y564_N566K]  0.42
30. KKARAYGPGIE [FLNA_Y287]  0.38
31. KASVDYIRKLQ [MITF_Y360]  0.351
32. RNLDTYQKRLR [PLA2G2D_Y126]  0.307
33. SKKSTYQALLD [GANC_Y43]  0.305

biological target: Fes (UniProt P07332); assay: as above
Sequence (P07332 whole entry, looked up): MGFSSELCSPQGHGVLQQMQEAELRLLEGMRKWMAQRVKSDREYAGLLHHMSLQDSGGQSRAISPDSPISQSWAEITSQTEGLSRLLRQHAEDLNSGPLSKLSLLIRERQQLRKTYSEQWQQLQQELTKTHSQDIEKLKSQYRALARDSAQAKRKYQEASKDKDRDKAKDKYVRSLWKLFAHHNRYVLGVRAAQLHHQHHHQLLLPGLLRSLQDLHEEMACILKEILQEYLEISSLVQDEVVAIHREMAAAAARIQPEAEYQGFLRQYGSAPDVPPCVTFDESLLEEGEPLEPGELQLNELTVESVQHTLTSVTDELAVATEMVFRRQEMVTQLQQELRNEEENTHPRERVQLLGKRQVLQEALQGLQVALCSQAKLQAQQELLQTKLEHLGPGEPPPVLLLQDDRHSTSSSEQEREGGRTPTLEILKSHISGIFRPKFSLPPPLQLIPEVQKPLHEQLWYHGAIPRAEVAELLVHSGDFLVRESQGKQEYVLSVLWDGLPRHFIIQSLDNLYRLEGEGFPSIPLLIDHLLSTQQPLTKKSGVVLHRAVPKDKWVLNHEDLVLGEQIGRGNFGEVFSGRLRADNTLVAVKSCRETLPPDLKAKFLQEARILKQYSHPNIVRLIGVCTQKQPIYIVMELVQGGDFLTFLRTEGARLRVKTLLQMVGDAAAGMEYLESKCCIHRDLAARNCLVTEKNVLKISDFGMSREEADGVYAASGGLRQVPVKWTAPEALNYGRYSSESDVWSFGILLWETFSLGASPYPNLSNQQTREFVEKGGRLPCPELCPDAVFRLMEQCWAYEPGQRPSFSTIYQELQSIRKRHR

In order of falling phosphorylation enrichment:
1. EEALYYLTRVE [SET_Y119_H118Y]  1.43
2. IGNGYYFHVFS [MYBPC3_Y1136_R1138H]  1.39
3. LQKNIYSEELR [LMNA_Y211_F206L]  1.39
4. ADEDIYGVLPA [LYNtide_2014]  1.36
5. SKNFTYIWWLN [PSG4_Y271_YF]  1.36
6. GVTLLYFGRFN [ADGRD1_Y85_YF]  1.34
7. PTQLPYDHKWE [KIT_Y578]  1.33
8. FMMMRYSQNIR [SDAD1_Y656_V660I]  1.3
9. TALFIYIRPKA [OR10C1_Y258]  1.22
10. PVLSLYASGRT [ACTA1_Y145_A140P]  1.19
11. GLALRCLSDHS [VWF_Y1584_Y1584C]  1.16
12. KNKELYSDLFD [PDE10A_Y300]  1.14
13. EASGIYVKSII [PATJ_Y396]  1.13
14. PVPKTYDMLNA [PKP2_Y108_K112N]  1.11
15. GGRIDYIAGLV [APRT_Y60_D65V]  1.11
16. NSFKYYMSDDI [ATRX_Y204_C200S]  1.01
17. DGTIVYTGLET [USH2A_Y4487]  1.01
18. KILGTYYETGS [PAX2_Y72_R71T]  0.936
19. GHEYIYVDPMQ [PDGFRA_Y574]  0.917
20. GRVFVYHLSEQ [ITGAE_Y551_R552H_YF]  0.893
21. VIGRMYDYHVL [RPF2_Y109]  0.859
22. GLALRYLSDHS [VWF_Y1584]  0.838
23. EQLLDYTRTVQ [INPP5E_Y439_R435Q]  0.815
24. ELCSEYRKSRK [SPINK5_Y440]  0.803
25. KIPGRYYETGS [PAX2_Y72_L69P]  0.713
26. RQLEIYRASRP [ERCC4_Y594]  0.673
27. KASVDYIRKLQ [MITF_Y360]  0.651
28. LTMAPYSSVSL [FAM81A_Y24]  0.618
29. RNLDTYQKRLR [PLA2G2D_Y126]  0.61
30. SKKSTYQALLD [GANC_Y43]  0.541
31. RPGSGYTKIMR [PKLR_Y564_N566K]  0.525
32. KTTSGYAGGLS [KRT8_Y419]  0.496
33. KKARAYGPGIE [FLNA_Y287]  0.446

biological target: Fyn (UniProt P06241); assay: as above
Sequence (P06241 whole entry, looked up): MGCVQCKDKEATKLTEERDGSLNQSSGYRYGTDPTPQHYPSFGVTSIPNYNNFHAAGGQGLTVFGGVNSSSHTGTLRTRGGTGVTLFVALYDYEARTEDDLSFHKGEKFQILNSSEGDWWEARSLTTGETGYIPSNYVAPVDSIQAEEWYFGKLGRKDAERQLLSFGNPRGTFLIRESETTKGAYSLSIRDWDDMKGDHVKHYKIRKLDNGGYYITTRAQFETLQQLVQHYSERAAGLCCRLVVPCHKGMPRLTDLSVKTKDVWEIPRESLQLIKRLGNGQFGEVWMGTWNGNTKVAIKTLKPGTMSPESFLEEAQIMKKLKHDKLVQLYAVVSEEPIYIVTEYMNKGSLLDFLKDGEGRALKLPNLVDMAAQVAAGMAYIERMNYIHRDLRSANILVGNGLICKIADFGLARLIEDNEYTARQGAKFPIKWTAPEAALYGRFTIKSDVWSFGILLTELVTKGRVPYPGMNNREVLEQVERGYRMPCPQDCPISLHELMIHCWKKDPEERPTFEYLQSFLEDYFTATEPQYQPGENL

In order of rising phosphorylation enrichment:
1. KTTSGYAGGLS [KRT8_Y419]  0.33
2. KASVDYIRKLQ [MITF_Y360]  0.336
3. KKARAYGPGIE [FLNA_Y287]  0.357
4. ELCSEYRKSRK [SPINK5_Y440]  0.378
5. RPGSGYTKIMR [PKLR_Y564_N566K]  0.404
6. SKNFTYIWWLN [PSG4_Y271_YF]  0.416
7. GGRIDYIAGLV [APRT_Y60_D65V]  0.418
8. RQLEIYRASRP [ERCC4_Y594]  0.426
9. EASGIYVKSII [PATJ_Y396]  0.429
10. IGNGYYFHVFS [MYBPC3_Y1136_R1138H]  0.43
11. NSFKYYMSDDI [ATRX_Y204_C200S]  0.434
12. SKKSTYQALLD [GANC_Y43]  0.447
13. RNLDTYQKRLR [PLA2G2D_Y126]  0.452
14. GLALRYLSDHS [VWF_Y1584]  0.465
15. EQLLDYTRTVQ [INPP5E_Y439_R435Q]  0.469
16. PTQLPYDHKWE [KIT_Y578]  0.491
17. KIPGRYYETGS [PAX2_Y72_L69P]  0.496
18. VIGRMYDYHVL [RPF2_Y109]  0.504
19. FMMMRYSQNIR [SDAD1_Y656_V660I]  0.513
20. GLALRCLSDHS [VWF_Y1584_Y1584C]  0.515
21. LTMAPYSSVSL [FAM81A_Y24]  0.536
22. TALFIYIRPKA [OR10C1_Y258]  0.55
23. GVTLLYFGRFN [ADGRD1_Y85_YF]  0.562
24. PVLSLYASGRT [ACTA1_Y145_A140P]  0.616
25. PVPKTYDMLNA [PKP2_Y108_K112N]  0.666
26. GRVFVYHLSEQ [ITGAE_Y551_R552H_YF]  0.68
27. KNKELYSDLFD [PDE10A_Y300]  0.68
28. DGTIVYTGLET [USH2A_Y4487]  0.706
29. KILGTYYETGS [PAX2_Y72_R71T]  0.769
30. LQKNIYSEELR [LMNA_Y211_F206L]  1.92
31. GHEYIYVDPMQ [PDGFRA_Y574]  3.2
32. EEALYYLTRVE [SET_Y119_H118Y]  4.26
33. ADEDIYGVLPA [LYNtide_2014]  4.82
